Assay results as given in patent publication US12545899B2, “Luciferase enzymes for use with thermostable luciferins in bioluminescent assays” (Promega Corporation, priority 2018, dated 2026).

Assays:
[1] = Kinetic analysis of ATG-3707 variants with CS0333; format: biochemical
Procedure: Additionally, Table 5 (below) includes kinetic analysis of the ATG-3707 variants identified above. Reagent compositions included CS0333 serially diluted 10-fold from 1 mM to 10 fM in reaction buffer with 2 mM ATP. […] Reactions were incubated at 25° C. for 3 min, and luminescence was read and then normalized to ATG-3707 activity tested in parallel. […] Since C2157D2 was selected for improved brightness in CellTiterGlo® buffer over ATG-3707, it still had beneficial properties.

[2] = Differential scanning fluorimetry (DSF) analysis; format: physicochemical; parameters: key to DSF Tm: melting temperature in °C (heated 30-95 °C at 1 °C/min); details: for DSF Tm: Table 7A; for DSF Tm (° C.): Table 7B
Procedure: (§1) To conduct the experiment, Sypro Orange (5000×) was diluted in water to 3× and combined with enzymes stored in 50 mM HEPES pH 7.5, 100 mM NaCl, 2 mM EDTA to a final concentration of 5×. Fluorescence was read at 60 second intervals as the reactions were heated at 1° C. per minute from 30-95° C. The change in fluorescence at each minute was calculated and plotted for each temperature in the range.
as §1, with “The luciferase enzyme variants generated were also evaluated using DSF analysis as shown in the representative results provided in Tables 7A and 7B above. To” for “To”, “the experiments,” for “the experiment,”, “in 20” for “in 50”, “7.5, 200” for “7.5, 100”, “NaCl, 1” for “NaCl, 2”

[3] = Brightness of additional luciferase enzyme variants with CS0333; format: biochemical; details: for Fold-improvement over ATG3707, CS0333 BG / Fold-improvement over ATG3707, CS0333 DR: Table 7A; for Fold-improvement over ATG3707, CS0333 BG / Fold-improvement over ATG3707, CS0333 DR / luminescence CS0333 BG / luminescence CS0333 DR: 1 mM CS0333; for Fold-improvement over ATG3707, CS0333 BG / luminescence CS0333 BG / Fold improvement over ATG3707, CS0333 BG: Bright-Glo buffer; for Fold-improvement over ATG3707, CS0333 DR / luminescence CS0333 DR / Fold improvement over ATG3707, CS0333 DR: Detection Reagent buffer; for luminescence CS0333 BG / luminescence CS0333 DR / Fold improvement over ATG3707, CS0333 BG / Fold improvement over ATG3707, CS0333 DR: Table 7B
Procedure: (§2) Additional luciferase enzyme variants were generated and evaluated for their stability and activity. To evaluate the additional luciferase enzyme variants, 0.005 mg/ml luciferase enzyme variant was mixed with 1 mM ATP+1 mM substrate in either Bright-Glo™ (BG) or Detection Reagent (DR) buffers. […] (Table 7A is colored according to their relative luminescence values within each column across a red to green color spectrum with the lowest values colored red and the highest values colored green.)

[4] = Brightness of additional luciferase enzyme variants with CS0280; format: biochemical; details: for Fold-improvement over ATG3707, CS0280 BG / Fold-improvement over ATG3707, CS0280 DR: Table 7A; for Fold-improvement over ATG3707, CS0280 BG / Fold-improvement over ATG3707, CS0280 DR / luminescence CS0280 BG / luminescence CS0280 DR: 1 mM CS0280; for Fold-improvement over ATG3707, CS0280 BG / luminescence CS0280 BG / Fold improvement over ATG3707, CS0280 BG: Bright-Glo buffer; for Fold-improvement over ATG3707, CS0280 DR / luminescence CS0280 DR / Fold improvement over ATG3707, CS0280 DR: Detection Reagent buffer; for luminescence CS0280 BG / luminescence CS0280 DR / Fold improvement over ATG3707, CS0280 BG / Fold improvement over ATG3707, CS0280 DR: Table 7B
Procedure: as §2

[5] = Luminescence of ATG-3707 variants (second round epPCR) with CS0333; format: biochemical
Procedure: Reagent compositions included CS0333 diluted from 20 mM to 2 mM in reaction buffer with 2 mM ATP. […] Reactions were incubated at 25° C. for 3 min, and luminescence was read and then normalized to ATG-3707 activity tested in parallel.

| luminescence CS0333 BG [3] | luminescence CS0333 DR [3] | luminescence CS0280 BG [4] | luminescence CS0280 DR [4] | Molecule | Km ([1]; BrightGlo) [µM] | Vmax (RLU) ([1]; BrightGlo) | Km ([1]; Detection Reagent) [µM] | Vmax (RLU) ([1]; Detection Reagent) | DSF Tm [2] | Fold-improvement over ATG3707, CS0333 BG [3] | Fold-improvement over ATG3707, CS0333 DR [3] | Fold-improvement over ATG3707, CS0280 BG [4] | Fold-improvement over ATG3707, CS0280 DR [4] | DSF Tm (° C.) [2] [°C] | Fold improvement over ATG3707, CS0333 BG [3] | Fold improvement over ATG3707, CS0333 DR [3] | Fold improvement over ATG3707, CS0280 BG [4] | Fold improvement over ATG3707, CS0280 DR [4] | further results |
| --- | --- | --- | --- | --- | --- | --- | --- | --- | --- | --- | --- | --- | --- | --- | --- | --- | --- | --- | --- |
|  |  |  |  | C2242E1: SEQ ID NO: 42; H244W+T344A+I396K+S193A+N228D+L305F+S306P+I109V+C38R+F55I+V262A+I422V (protein) MADKNILYGPEPFYPLEDGTAGEQMFDALSRYAAIPGRIALTNAHTKENVLYEEILKLSCRLAESFKKYGLKQNDTIAVCSENSLQFFLPVIASLYLGIIVAPVNDKYVERELIHSLGIVKPRIVFCSKNTFQKVLNVKSKLKSIETIIILDLNEDLGGYQCLNNFISQNSDSNLDVKKFKPYSFNRDDQVAAIMFSSGTTGLPKGVMLTHKNIVARFSIAKDPTFGDAINPTSAILTVIPFHWGFGMMTTLGYFTCGFRVALMHTFEEKLFLQSLQDYKVESTLLVPTLMAFLAKSALVEKYDFPHLKEIASGGAPLSKEIGEMVKKRFKLNFVRQGYGLTEATSAVLITPKGDAKPGSTGKIVPLHAVKVVDPTTGKILGPNEPGELYFKGPMKMKGYYNNEEATKAIIDNDGWLRSGDVAYYDNDGHFYIVDRLKSLIKYKGYQVAPAEIEGILLQHPYIVDAGVTGIPDEAAGELPAAGVVVQTGKYLNEQIVQDYVASQVSTAKWLRGGVKFLDEIPKGSTGKIDRKVLRQMLEKHTNGHHHHHHHH | 5.81 | 7,021,077 RLU | 109 | 5,366,355 RLU | 54 | 1.75 | 1.63 | 1.25 | 1.56 |  |  |  |  |  | Luminescence (RLU) BrightGlo ([5]; BrightGlo buffer, 25° C., 3 min): 5643850 RLU; Normalized Luminescence BrightGlo ([5]; BrightGlo buffer, normalized to ATG-3707): 1.45; Luminescence (RLU) CellTiterGlo ([5]; CellTiterGlo buffer, 25° C., 3 min): 708509 RLU; Normalized Luminescence CellTiterGlo ([5]; CellTiterGlo buffer, normalized to ATG-3707): 1.10; Luminescence (RLU) Detection Reagent ([5]; Detection Reagent buffer, 25° C., 3 min): 6604720 RLU; Normalized Luminescence Detection Reagent ([5]; Detection Reagent buffer, normalized to ATG-3707): 1.28 |
| 18,891,000 | 14,484,700 | 2,040,340 | 245,081 | C9715F9: SEQ ID NO: 95; H244W+T344A+1396K+S193A+N228D+L305F+S306P+I109V+C38R+A316W+T342S+V348I+K205N (protein) MADKNILYGPEPFYPLEDGTAGEQMFDALSRYAAIPGRIALTNAHTKENVLYEEFLKLSCRLAESFKKYGLKQNDTIAVCSENSLQFFLPVIASLYLGIIVAPVNDKYVERELIHSLGIVKPRIVFCSKNTFQKVLNVKSKLKSIETIIILDLNEDLGGYQCLNNFISQNSDSNLDVKKFKPYSFNRDDQVAAIMFSSGTTGLPKGVMLTHKNIVARFSIAKDPTFGDAINPTSAILTVIPFHWGFGMMTTLGYFTCGFRVVLMHTFEEKLFLQSLQDYKVESTLLVPTLMAFLAKSALVEKYDFPHLKEIASGGWPLSKEIGEMVKKRFKLNFVRQGYGLSEATSAILITPKGDAKPGSTGKIVPLHAVKVVDPTTGKILGPNEPGELYFKGPMKMKGYYNNEEATKAIIDNDGWLRSGDIAYYDNDGHFYIVDRLKSLIKYKGYQVAPAEIEGILLQHPYIVDAGVTGIPDEAAGELPAAGVVVQTGKYLNEQIVQDYVASQVSTAKWLRGGVKFLDEIPKGSTGKIDRKVLRQMLEKHTNGHHHHHHHH |  |  |  |  |  |  |  |  |  | 68 | 3.55 | 3.40 | 2.57 | 8.38 |  |
| 20,331,700 | 15,418,100 | 1,996,020 | 213,031 | C8523E12: SEQ ID NO: 94; H244W+T344A+I396K+S193A+N228D+L305F+S306P+I109V+C38R+F55I+A316W+T342S+V348I (protein) MADKNILYGPEPFYPLEDGTAGEQMFDALSRYAAIPGCIALTNAHTKENVLYEEFLKLSCRLAESFKKYGLKQNDTIAVCSENSLQFFLPVIASLYLGIIVAPVNDKYVERELIHSLGIVQPRIVFCSKNTFQKVLNVKSKLKSIETIIILDLNEDLGGYQCLNNFISQNSDSNLDVKKFKPYSFNRDDQVAAIMFSSGTTGLPKGVMLTHKNIVARFSIAKDPTFGDAINPTSAILTVIPFHWGFGMMTTLGYFTCGFRAVLMHTFEEKLFLQSLQDYKVESTLLIPTLMAFLAKSALVEKYDFPHLKEIASGGAPLSKEIGEMVKKRFKLNFVRQGYGLTEATSAVLITPKGDAKPGSTGKIVPLHAVKVVDPTTGKILGPNEPGELYFKGPMKMKGYYNNEEATKAIIDNDGWLRSGDIAYYDNDGHFYIVDRLKSLIKYKGYQVAPAEIEGILLQHPYIVDAGVTGIPDEAAGELPAAGVVVQTGKYLNEQIVQDYVASQVSTAKWLRGGVKFLDEIPKGSTGKIDRKVLRQMLEKHTNGHHHHHHHH |  |  |  |  |  |  |  |  |  | 67 | 3.82 | 3.62 | 2.52 | 7.29 |  |
| 18,508,700 | 12,268,900 | 1,298,420 | 104,671 | C9673G4: SEQ ID NO: 96; H244W+T344A+I396K+S193A+N228D+L305F+S306P+I109V+C38R+F55I+A316W+T342S+V348I+I396I (protein) MADKNILYGPEPFYPLEDGTAGEQMFDALSRYAAIPGRIALTNAHTKENVLYEEILKLSCRLAESFKKYGLKQNDTIAVCSENSLQFFLPVIASLYLGIIVAPVNDKYVERELIHSLGIVKPRIVFCSKNTFQKVLNVKSKLKSIETIIILDLNEDLGGYQCLNNFISQNSDSNLDVKKFKPYSFNRDDQVAAIMFSSGTTGLPKGVMLTHKNIVARFSIAKDPTFGDAINPTSAILTVIPFHWGFGMMTTLGYFTCGFRVVLMHTFEEKLFLQSLQDYKVESTLLVPTLMAFLAKSALVEKYDFPHLKEIASGGWPLSKEIGEMVKKRFKLNFVRQGYGLSETTSAILITPKGDAKPGSTGKIVPLHAVKVVDPTTGKILGPNEPGELYFKGPMIMKGYYNNEEATKAIIDNDGWLRSGDIAYYDNDGHFYIVDRLKSLIKYKGYQVAPAEIEGILLQHPYIVDAGVTGIPDEAAGELPAAGVVVQTGKYLNEQIVQDYVASQVSTAKWLRGGVKFLDEIPKGSTGKIDRKVLRQMLEKHTNGHHHHHHHH |  |  |  |  |  |  |  |  |  | 71 | 3.48 | 2.88 | 1.64 | 3.58 |  |
|  |  |  |  | C2157D2: SEQ ID NO: 74; H244W+T344A+I396K+S193A+N228D+L305F+S306P+I109V+K107N+T289S (protein) MADKNILYGPEPFYPLEDGTAGEQMFDALSRYAAIPGCIALTNAHTKENVLYEEFLKLSCRLAESFKKYGLKQNDTIAVCSENSLQFFLPVIASLYLGIIVAPVNDKYIERELIHSLGIVKPRIVFCSKNTFQKVLNVKSKLKSIETIIILDLNEDLGGYQCLNNFISQNSDSNLDVKKFKPYSFNRDDQVASIMFSSGTTGLPKGVMLTHKNIVARFSIAKDPTFGNAINPTSAILTVIPFHHGFGMMTTLGYFTCGFRVVLMHTFEEKLFLQSLQDYKVESTLLVPTLMAFLAKSALVEKYDLSHLKEIASGGAPLSKEIGEMVKKRFKLNFVRQGYGLTETTSAVLITPKGDAKPGSTGKIVPLHAVKVVDPTTGKILGPNEPGELYFKGPMKMKGYYNNEEATKAIIDNDGWLRSGDIAYYDNDGHFYIVDRLKSLIKYKGYQVAPAEIEGILLQHPYIVDAGVTGIPDEAAGELPAAGVVVQTGKYLNEQIVQDYVASQVSTAKWLRGGVKFLDEIPKGSTGKIDRKVLRQMLEKHTNGHHHHHHHH | 6.31 | 3,053,170 RLU | 97.1 | 3,677,773 RLU | 63 | 1.16 | 1.52 | 2.36 | 3.08 |  |  |  |  |  |  |
